Data: PMC10397247
Values belong to the binder of their own block, whether it stands above or below them.

How the values were obtained:
Assay in all cases: two-hybrid library CCNG1;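 further: natural log of median RNA to DNA barcode read ratio; higher means stronger binding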
O3-bH = target: T1, O3-bH
T1 chain: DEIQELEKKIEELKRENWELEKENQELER

O4-bH = target: T2, O4-bH
T2 chain: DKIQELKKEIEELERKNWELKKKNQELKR

O5-bH = target: T3, O5-bH
T3 chain: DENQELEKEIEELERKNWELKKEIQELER

O6-bH = target: T4, O6-bH
T4 chain: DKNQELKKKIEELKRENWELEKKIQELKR

O7-bH = target: T5, O7-bH
T5 chain: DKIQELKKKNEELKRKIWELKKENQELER

O8-bH = target: T6, O8-bH
T6 chain: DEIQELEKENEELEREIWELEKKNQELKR

O8-bP = target: T7, O8-bP
T7 chain: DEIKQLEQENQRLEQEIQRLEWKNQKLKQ

O9-bH = target: T8, O9-bH
T8 chain: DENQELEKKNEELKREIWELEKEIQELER

4H3129-bN = target: T9, 4H3129-bN
T9 chain: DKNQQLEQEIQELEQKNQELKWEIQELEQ

4H3172-bN = target: T10, 4H3172-bN
T10 chain: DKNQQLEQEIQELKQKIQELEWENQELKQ

4H3414-bN = target: T11, 4H3414-bN
T11 chain: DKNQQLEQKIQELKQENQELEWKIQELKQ

4H3631-bN = target: T12, 4H3631-bN
T12 chain: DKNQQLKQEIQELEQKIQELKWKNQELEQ

4H3638-bN = target: T13, 4H3638-bN
T13 chain: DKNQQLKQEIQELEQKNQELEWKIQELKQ

4H3817-bN = target: T14, 4H3817-bN
T14 chain: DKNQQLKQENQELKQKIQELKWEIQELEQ

4H3974-bN = target: T15, 4H3974-bN
T15 chain: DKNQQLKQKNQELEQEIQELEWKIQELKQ

4H570-bN = target: T16, 4H570-bN
T16 chain: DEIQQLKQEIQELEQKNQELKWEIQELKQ

4H584-bN = target: T17, 4H584-bN
T17 chain: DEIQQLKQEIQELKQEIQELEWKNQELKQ

4H619-bN = target: T18, 4H619-bN
T18 chain: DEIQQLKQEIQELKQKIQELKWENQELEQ

4H850-bN = target: T19, 4H850-bN
T19 chain: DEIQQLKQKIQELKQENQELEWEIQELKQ

4H906-bN = target: T20, 4H906-bN
T20 chain: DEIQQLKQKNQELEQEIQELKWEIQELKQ

4H2588-bN = target: T21, 4H2588-bN
T21 chain: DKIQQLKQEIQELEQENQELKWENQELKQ

4H2692-bN = target: T22, 4H2692-bN
T22 chain: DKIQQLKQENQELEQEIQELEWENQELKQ

4H2717-bN = target: T23, 4H2717-bN
T23 chain: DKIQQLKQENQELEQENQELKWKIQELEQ

4H2839-bN = target: T24, 4H2839-bN
T24 chain: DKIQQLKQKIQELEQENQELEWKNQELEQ

4H2915-bN = target: T25, 4H2915-bN
T25 chain: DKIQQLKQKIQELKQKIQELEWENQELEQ

4H3057-bN = target: T26, 4H3057-bN
T26 chain: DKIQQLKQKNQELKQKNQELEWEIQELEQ

4H319-bN = target: T27, 4H319-bN
T27 chain: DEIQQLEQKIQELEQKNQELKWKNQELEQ

4H3277-bN = target: T28, 4H3277-bN
T28 chain: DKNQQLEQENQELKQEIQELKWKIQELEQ

4H348-bN = target: T29, 4H348-bN
T29 chain: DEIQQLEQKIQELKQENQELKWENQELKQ

4H40-bN = target: T30, 4H40-bN
T30 chain: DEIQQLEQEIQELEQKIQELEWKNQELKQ

4H477-bN = target: T31, 4H477-bN
T31 chain: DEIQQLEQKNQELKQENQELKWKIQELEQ

4H492-bN = target: T32, 4H492-bN
T32 chain: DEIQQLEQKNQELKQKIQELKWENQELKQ

4H741-bN = target: T33, 4H741-bN
T33 chain: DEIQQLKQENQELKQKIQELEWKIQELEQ

Binder: DENQELEKKNEELKRKIWELKKKIQELKR [O2-bH]
interaction score (O3-bH): 0.993 | interaction score (O4-bH): -0.611 | interaction score (O5-bH): -1.53 | interaction score (O6-bH): 0.712 | interaction score (O7-bH): -0.662 | interaction score (O8-bH): 0.211 | interaction score (O8-bP): -0.645 | interaction score (O9-bH): 0.854

Binder: DKIQQLKQEIQELEQENQELKWENQELKQ [4H2588-bN]
interaction score (4H2588-bN): 0.138 | interaction score (4H2692-bN): 0.0187 | interaction score (4H2717-bN): 0.223 | interaction score (4H2839-bN): -1.16 | interaction score (4H2915-bN): 0.795 | interaction score (4H3057-bN): -1.34 | interaction score (4H319-bN): -0.863 | interaction score (4H3277-bN): -0.49 | interaction score (4H348-bN): 1.49 | interaction score (4H40-bN): -0.648 | interaction score (4H477-bN): -1.95 | interaction score (4H492-bN): -0.343 | interaction score (4H741-bN): 0.0254

The remaining lines, values ahead:

interaction score (4H3129-bN): -0.749 | interaction score (4H3172-bN): -0.806 | interaction score (4H3414-bN): 1.09 | interaction score (4H3631-bN): -1.47 | interaction score (4H3638-bN): -1.26 | interaction score (4H3817-bN): -1.45 | interaction score (4H3974-bN): -0.744 | interaction score (4H570-bN): -0.835 | interaction score (4H584-bN): -1.09 | interaction score (4H619-bN): -0.774 | interaction score (4H850-bN): -1.41 | interaction score (4H906-bN): -1.2
Binder: DKNQQLEQEIQELEQKNQELKWEIQELEQ [4H3129-bN]

interaction score (O3-bH): -0.176 | interaction score (O4-bH): 2.01 | interaction score (O5-bH): -0.92 | interaction score (O6-bH): -0.104 | interaction score (O7-bH): -0.247 | interaction score (O8-bH): 0.212 | interaction score (O9-bH): -0.716
Binder: DEIQELEKKIEELKRENWELEKENQELER [O3-bH]
